The chains are these.
T1: human Y5 receptor (human, UniProt Q15761 1-445)
T1 construct: also called CG-19; hY5
T1 sequence: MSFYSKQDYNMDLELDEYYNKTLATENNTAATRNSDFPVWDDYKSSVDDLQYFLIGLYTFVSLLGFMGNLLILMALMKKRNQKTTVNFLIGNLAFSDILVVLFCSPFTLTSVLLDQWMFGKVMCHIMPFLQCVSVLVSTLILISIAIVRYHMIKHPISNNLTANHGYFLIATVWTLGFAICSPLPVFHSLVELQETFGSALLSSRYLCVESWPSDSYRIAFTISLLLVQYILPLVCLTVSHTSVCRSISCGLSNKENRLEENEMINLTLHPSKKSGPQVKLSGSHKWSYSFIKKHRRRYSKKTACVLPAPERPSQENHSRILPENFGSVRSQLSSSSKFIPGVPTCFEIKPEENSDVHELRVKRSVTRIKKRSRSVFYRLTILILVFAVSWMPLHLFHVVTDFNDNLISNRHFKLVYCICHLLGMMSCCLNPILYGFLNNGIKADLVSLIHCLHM

T2: rat Y1 receptor (rat, UniProt P21555 1-382)
T2 construct: whole, on cells; also called rY1
T2 sequence (looked up): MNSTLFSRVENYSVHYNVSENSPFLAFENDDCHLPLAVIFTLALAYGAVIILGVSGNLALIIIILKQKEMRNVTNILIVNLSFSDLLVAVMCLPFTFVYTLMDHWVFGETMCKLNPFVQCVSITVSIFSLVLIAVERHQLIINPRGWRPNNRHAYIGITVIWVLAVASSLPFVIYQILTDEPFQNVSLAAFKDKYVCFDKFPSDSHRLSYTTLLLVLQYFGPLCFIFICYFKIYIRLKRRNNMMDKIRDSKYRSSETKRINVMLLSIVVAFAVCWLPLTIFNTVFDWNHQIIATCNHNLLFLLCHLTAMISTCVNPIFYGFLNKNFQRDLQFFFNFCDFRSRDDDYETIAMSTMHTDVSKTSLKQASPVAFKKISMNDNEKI

T3: rat hypothalamic Y5 receptor (rat, UniProt Q63634 1-445)
T3 construct: Expressed transiently in COS-7 or stably in 293 cells; also called rat Y5; CG-18
T3 sequence: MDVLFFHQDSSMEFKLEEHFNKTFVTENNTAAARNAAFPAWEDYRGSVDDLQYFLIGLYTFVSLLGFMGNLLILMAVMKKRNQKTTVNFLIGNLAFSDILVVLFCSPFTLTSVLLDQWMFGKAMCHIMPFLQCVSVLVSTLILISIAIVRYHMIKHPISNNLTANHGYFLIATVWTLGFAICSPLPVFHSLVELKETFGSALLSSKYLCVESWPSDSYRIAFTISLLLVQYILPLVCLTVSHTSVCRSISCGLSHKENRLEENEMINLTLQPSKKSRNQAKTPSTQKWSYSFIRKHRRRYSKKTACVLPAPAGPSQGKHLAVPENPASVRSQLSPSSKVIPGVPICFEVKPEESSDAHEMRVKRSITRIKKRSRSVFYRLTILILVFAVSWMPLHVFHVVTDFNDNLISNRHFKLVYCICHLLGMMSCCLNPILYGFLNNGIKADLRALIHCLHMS

T4: rat Y2 receptor (rat, UniProt Q9ERC0 1-381)
T4 construct: whole, on cells; also called rY2
T4 sequence: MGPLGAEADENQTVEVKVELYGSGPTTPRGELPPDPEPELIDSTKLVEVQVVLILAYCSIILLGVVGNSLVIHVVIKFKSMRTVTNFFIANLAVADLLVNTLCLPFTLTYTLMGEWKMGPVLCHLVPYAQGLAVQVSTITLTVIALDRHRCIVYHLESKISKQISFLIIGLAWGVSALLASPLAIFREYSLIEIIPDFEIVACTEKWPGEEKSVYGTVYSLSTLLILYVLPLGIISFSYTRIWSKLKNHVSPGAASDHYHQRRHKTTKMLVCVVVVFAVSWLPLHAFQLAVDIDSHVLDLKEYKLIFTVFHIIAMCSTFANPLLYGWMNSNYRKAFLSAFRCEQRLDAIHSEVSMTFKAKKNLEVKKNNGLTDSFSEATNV

B1: porcine NPY16-36 (peptide, UniProt P01304 25-45, looked up)
peptide: DLARYYSALRHYINLITRQRY
notes: range 16-36; Range counted on the mature peptide
B2: human PP31-36 (peptide, UniProt P01298 60-65, looked up)
peptide: LTRPRY
notes: range 60-65; Range counted on the mature peptide
B3: human PYY13-36 (peptide, UniProt P10082 41-64, looked up)
peptide: SPEELNRYYASLRHYLNLVTRQRY
notes: range 13-36; Range counted on the mature peptide
B4: human PP13-36 (peptide, UniProt P01298 42-65, looked up)
peptide: TPEQMAQYAADLRRYINMLTRPRY
notes: as for B3
B5: porcine NPY22-36 (peptide, UniProt P01304 31-45, looked up)
peptide: SALRHYINLITRQRY
notes: range 22-36; Range counted on the mature peptide

Consider 7 molecules from patent US6713265 (SYNAPTIC PHARMACEUTICAL, dated 2004).

Ends that are not written are not given here.

T5 sequence (Q63447 whole entry): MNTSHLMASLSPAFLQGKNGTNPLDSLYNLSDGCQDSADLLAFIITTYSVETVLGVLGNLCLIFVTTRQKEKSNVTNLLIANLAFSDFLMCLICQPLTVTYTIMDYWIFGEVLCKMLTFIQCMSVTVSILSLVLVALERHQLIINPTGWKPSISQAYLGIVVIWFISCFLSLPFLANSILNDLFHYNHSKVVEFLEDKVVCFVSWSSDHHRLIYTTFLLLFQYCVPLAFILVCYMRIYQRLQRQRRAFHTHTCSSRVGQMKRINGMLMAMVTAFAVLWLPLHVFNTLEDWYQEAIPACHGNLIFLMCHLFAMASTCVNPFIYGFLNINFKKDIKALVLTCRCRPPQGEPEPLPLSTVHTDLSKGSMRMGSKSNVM

One assay concerns the target T1, human Y5 receptor. The experiment in a line: 125I-PYY3-36 displacement, LM(tk-) membranes.
In turn, B1 registered a Ki of 180 nM.
As to B2, affinity was put at a Ki of 41000 nM.

Another assay concerns the target T2, rat Y1 receptor. In words: 125I-PYY displacement, COS-7 membranes.
In the case of B3, the Ki came out at 130 nM.
As to B1, the Ki is 140 nM.
Turning to APSEPHHPGDQATQDQLAQYYSDLYQYITFVTRPRF (ends and bridges not checked) [frog PP (rana temporaria)], the Ki came to 720 nM.
As to FLRF-NH2 [FLRF-amide], the inhibition constant Ki came out at 45000 nM.

Another assay addresses T5, rat Y4 receptor (rat, UniProt Q63447 1-375).
T5 construct: whole, on cells; also called rY4
In words: 125I-PYY displacement, COS-7 membranes.
As for B1, the affinity, expressed as Ki, was 200 nM.
Molecule B2 showed a Ki of 26 nM.

The target in the next assay is T3, rat hypothalamic Y5 receptor. In words: 125I-PYY displacement, COS-7 membranes.
Molecule B4 showed a Ki of 84 nM.
Take B1: the inhibition constant Ki came to 260 nM.
The same measure, in the same setting: the figure for FLRF-NH2 [FLRF-amide] is 5500 nM.

The target in another assay is T4, rat Y2 receptor. In words: 125I-PYY displacement, COS-7 membranes.
In turn, B1 came in with a Ki of 35 nM.
Still for that read-out and setting: the figure for B5 is 54 nM.

The target in a further assay is T6, human Y4 receptor (human, UniProt P50391 1-375).
T6 construct: whole, on cells
T6 sequence (P50391 whole entry): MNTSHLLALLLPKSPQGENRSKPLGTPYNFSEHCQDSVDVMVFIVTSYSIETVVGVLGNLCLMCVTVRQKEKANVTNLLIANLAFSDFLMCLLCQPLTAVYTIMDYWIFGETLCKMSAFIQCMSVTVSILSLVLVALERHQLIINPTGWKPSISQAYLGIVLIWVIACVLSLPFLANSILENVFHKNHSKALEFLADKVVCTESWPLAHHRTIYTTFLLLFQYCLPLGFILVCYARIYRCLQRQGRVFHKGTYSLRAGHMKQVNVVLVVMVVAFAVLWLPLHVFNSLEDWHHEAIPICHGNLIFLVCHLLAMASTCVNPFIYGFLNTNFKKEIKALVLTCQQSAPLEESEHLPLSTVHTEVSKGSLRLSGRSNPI
The experiment in a line: 125I-PYY displacement, COS-7 membranes.
Take B4: the inhibition constant Ki came out at 39 nM.

The next assay deals with T1, human Y5 receptor. The experiment in a line: 125I-PYY displacement, COS-7 membranes.
Molecule B4 registered a Ki of 720 nM.
B1: the Ki turned out to be 300 nM.

The target of a further assay is T3, rat hypothalamic Y5 receptor. In words: 125I-PYY displacement, COS-7 membranes. The source holds these as a separate data set.
In the case of B4, the affinity, expressed as Ki, was 290 nM.
Take B1: the Ki turned out to be 260 nM.

Another assay shares this target. In words: cell-based or functional assay.
Regarding FLRF-NH2 [FLRF-amide], the “EC50, inhibition of forskolin-stimulated cAMP accumulation, 293 cells” value was 13000 nM.

A further assay deals with T1, human Y5 receptor. In words: 125I-PYY displacement, COS-7 membranes. This is another data set of the same source.
Molecule B4 had a Ki of 720 nM.

The next assay deals with T6, human Y4 receptor. The experiment in a line: 125I-PYY displacement, COS-7 membranes. This is another data set of the same source.
Molecule B4 returned a Ki of 39 nM.
